In US20260151494A1 one finds RLU and Apical domain:HSA data, which are given here for 33 molecules.

Assay [1] addresses apical domain of CD71 (Screen 3: 'cynomolgus apical domain of human CD71') (cynomolgus (as paragraph 454 words it; ambiguous)). Kind of assay: primary ELISA. (An ELISA detects its analyte on a solid surface through an enzyme-linked reagent.)
Assay [2] shares this target. The experiment in a line: primary ELISA, RLU ratio to HSA.

B1: CD71-binding FN3 domain SEQ ID NO: 332 (designed binder)
chain: MSLPAPKNLVVSRVTEDSARLSWTAPDAAFDSFEIGYWEGPGGGEAIILVVPGSERSYDLTGLKPGTEYYVQIGGVKGGDWSTPLWATFTT
In turn, B1 displayed an RLU in assay [1] of 4.94e+06 RLU. For the same molecule, in assay [2], the Apical domain:HSA was 380.

B2: CD71-binding FN3 domain SEQ ID NO: 331 (designed binder)
chain: MSLPAPKNLVVSRVTEDSARLSWTAPDAAFDSFFIGYLEPQPPGEAIHLYVPGSERSYDLTGLKPGTEYNVTIQGVKVGFPSEPLIANFTT
Turning to B2, in assay [1], the RLU worked out at 6.24e+06 RLU. Moreover, the Apical domain:HSA in assay [2] stood at 701.

B3: CD71-binding FN3 domain SEQ ID NO: 333 (designed binder)
chain: MSLPAPENLVVSRVTEDSARLSWTAPDAAFDSFFIGYLEPQPPGEAIALYVPGSERSYDLTGLKPGTEYNVTIQGVKGGFPSLPLVATFTT
Turning to B3, the RLU in assay [1] is 6.2e+06 RLU. In assay [2], the Apical domain:HSA worked out at 171.

B4: CD71-binding FN3 domain SEQ ID NO: 303 (designed binder)
chain: MSLPAPKNLVVSRVTEDSARLSWTAPDAAFDSFWIEYWEGWKSGEAIVLTVPGSERSYDLTGLKPGTEYRVHIWGVKGGIVSWPLSAIFTT
The molecule B4 showed an RLU in assay [1] of 5.6e+06 RLU. For the same molecule, the Apical domain:HSA in assay [2] came to 636.

B5: CD71-binding FN3 domain SEQ ID NO: 314 (designed binder)
chain: MGSLPAPKNLVVSRVTEDSARLSWTAPDAAFDSFEIGYFENLYLGEAIVLTVPGSERSYDLTGLKPGTEYWVQIGGVKGGNWSAPLSAIFTT
With B5, the RLU in assay [1] stood at 5.25e+06 RLU. The Apical domain:HSA in assay [2] stood at 427.

B6: CD71-binding FN3 domain SEQ ID NO: 306 (designed binder)
chain: MSLPAPKNLVVSRVTEDSARLSWTAPDAAFDSFEIGHFENLYLGEAIVLTVPGSERSYDLTGLKPGIEYWVQIGGVKGGVWSVSLSAIFTT
In the case of B6, the RLU in assay [1] amounted to 4.74e+06 RLU. Moreover, the Apical domain:HSA in assay [2] was determined as 320.

B7: CD71-binding FN3 domain SEQ ID NO: 319 (designed binder)
chain: MSLPAPKNLVVSRVTEDSARLSWTAPGAAFDSFEIGYFENLYLGEAIVLTVPGSERSYDLTGLKPGTEYWVQIGGVKGGVWSVPLSAIFTT
B7: the RLU in assay [1] is 4.57e+06 RLU. Besides, the Apical domain:HSA in assay [2] is 187.

B8: CD71-binding FN3 domain SEQ ID NO: 326 (designed binder)
chain: MSLPAPKNLVVSRVTEDSARLSWTAPDAAFDSFEIGYWENAYKGEAIVLTVPGSERSYDLTGLKPGTEYWVQIGGVKGGVWSTPLSAIFTT
As for B8, in assay [1], the RLU stood at 4.07e+06 RLU. Further, in assay [2], the Apical domain:HSA turned out to be 215.

B9: CD71-binding FN3 domain SEQ ID NO: 320 (designed binder)
chain: MSLPVPKNLVVSRVTEDSARLSWTAPDAAFDSFEIGYWENAYKGEAIVLTVPGSERSYDLTGLKPGTEYWVQIGGVKGGNWSAPLSAIFTT
Molecule B9 had an RLU in assay [1] of 3.99e+06 RLU. Moreover, the Apical domain:HSA in assay [2] was found to be 290.

B10: CD71-binding FN3 domain SEQ ID NO: 311 (designed binder)
chain: MSLPAPKNLVVSRVTEDSARLSWTAPDAAFDSFEIGYWENAYKGEAIVLTVPGSERSYDLTGLKPGTEYVVFIGGVKGGSWSNPLSAIFTT
As to B10, in assay [1], the RLU is 4.66e+06 RLU. Moreover, the Apical domain:HSA in assay [2] was determined as 260.

B11: CD71-binding FN3 domain SEQ ID NO: 324 (designed binder)
chain: MSLPAPKNLVVSRITEDSARLSWTAPDAAFDSFEIGYFENLYLGEAIVLTVPGSERSYDLTGLKPGTEYWVQIGGVKGGNWSAPLSAISTT
In assay [1], B11 showed an RLU of 4.92e+06 RLU. Moreover, the Apical domain:HSA in assay [2] was found to be 462.

B12: CD71-binding FN3 domain SEQ ID NO: 308 (designed binder)
chain: MSLPAPKNLVVSRVTEDSARMSWTTPDAAFDSFEIGYFENLYLGEAIVLTVPGSERSYDLTGLKPGTEYWVQIGGVKGGNWSAPLSAIFTT
As to B12, the RLU in assay [1] was found to be 5.26e+06 RLU. In addition, the Apical domain:HSA in assay [2] amounted to 188.

B13: CD71-binding FN3 domain SEQ ID NO: 310 (designed binder)
chain: MSLPAPKNLVVSRVTEDSARLSWTAPDAAFDSFEIDYGEYSQAGEAIGLLVPGSERSYDLTGLKPGTEYAVWIGGVKGGFFSTPLEADFTT
In assay [1], B13 gave an RLU of 4.83e+06 RLU. In assay [2], the Apical domain:HSA worked out at 168.

B14: CD71-binding FN3 domain SEQ ID NO: 297 (designed binder)
chain: MSLPAPKNLVVSRVTEDSARLSWTAPDAAFDSFEISYFENTWYGEAIVLTVPGSERSYDLTGLKPGTEYSVRIFGVKGGNFSFPLSAIFTT
In assay [1], B14 gave an RLU of 5.29e+06 RLU. In addition, in assay [2], the Apical domain:HSA is 1030.

B15: CD71-binding FN3 domain SEQ ID NO: 304 (designed binder)
chain: MSLPAPKNLVVSRVTEDSARLSWTAPDAAFDSFEIGYFENLYLGEAIVLTVPGSERSYDLTGLKPGTEYVVFIGGVKGGVWSVPLSAIFTT
In the case of B15, the RLU in assay [1] stood at 5.5e+06 RLU. Moreover, the Apical domain:HSA in assay [2] was determined as 446.

B16: CD71-binding FN3 domain SEQ ID NO: 328 (designed binder)
chain: MSLPAPKNLVVSRVTEDSARLSWTAPDAAFDSFEIGYFGNLYLGEAIVLTVPGSERSYDLTGLKPGTEYWVQIGGVKGGNWSAPLSAIFTT
B16: the RLU in assay [1] is 3.7e+06 RLU. The Apical domain:HSA in assay [2] was found to be 42.

B17: CD71-binding FN3 domain SEQ ID NO: 301 (designed binder)
chain: MSLPAPKNLVVSRVTEDSARLSWTTPDAAFDSFEIGYFENLYLGEAIVLTVPGSERSYDLTGLKPGTEYWVQIGGVKGGNWSAPLSAIFTT
B17 had an RLU in assay [1] of 4.53e+06 RLU. The Apical domain:HSA in assay [2] stood at 216.

B18: CD71-binding FN3 domain SEQ ID NO: 299 (designed binder)
chain: MSLPAPKNLVVSRVTEDSARLSWTAPDAAFDSFEIAYFENLYLGEAIVLTVPGSERSYDLTGLKPGTEYWVQIGGVKGGNWSAPLSAIFTT
B18 came in with an RLU in assay [1] of 5.35e+06 RLU. Further, in assay [2], the Apical domain:HSA worked out at 614.

B19: CD71-binding FN3 domain SEQ ID NO: 329 (designed binder)
chain: MSLPAPKNLVVSRVTEDSARLSWTAPDAAFDSFDIGYFEATYYGEAIVLTVPGSERSYDLTGLKPGTEYRVWIGGVKGGYYSNPLSAIFTT
On to B19, for which the RLU in assay [1] is 4.64e+06 RLU. Further, the Apical domain:HSA in assay [2] is 128.

B20: CD71-binding FN3 domain SEQ ID NO: 298 (designed binder)
chain: MSLPAPKNLVVSRVTEDSARLSWTAPDAAFDSFEIGYFENLYLGEAIVLTVPGSERSYDLTGLKPGTEYWVQIGGVKGDNWSAPLSAIFTT
In the case of B20, the RLU in assay [1] amounted to 5.3e+06 RLU. Further, in assay [2], the Apical domain:HSA is 414.

B21: CD71-binding FN3 domain SEQ ID NO: 312 (designed binder)
chain: MSLPAPKNLVVSRVTEDSARLSWTAPDAAFDSFEIGYFENLYLGEAIVLTIPGSERSYDLTGLKPGTEYWVQIGGVKGGNWSAPLSAIFTT
B21: the RLU in assay [1] was found to be 5.31e+06 RLU. Also, the Apical domain:HSA in assay [2] came out at 556.

B22: CD71-binding FN3 domain SEQ ID NO: 316 (designed binder)
chain: MSLPAPKNLVISRVTEDSARLSWTAPDAAFDSFEIGYFENLYLGEAIVLTVPGSERSYDLTGLKPGTEYWVQIGGVKGGNWSAPLSAIFTT
With B22, the RLU in assay [1] was 4.44e+06 RLU. The Apical domain:HSA in assay [2] was 442.

B23: CD71-binding FN3 domain SEQ ID NO: 327 (designed binder)
chain: MSLPAPKNLVVSRVTEDSARLSWTAPDAAFDSFEIGYWENAYKGEAIVLTVPGSERSYDLTGLKPGTEYWVQIGGVKGGNWSAPLSAIFTT
Consider B23, for which the RLU in assay [1] amounted to 4.24e+06 RLU. Further, in assay [2], the Apical domain:HSA amounted to 227.

B24: CD71-binding FN3 domain SEQ ID NO: 300 (designed binder)
chain: MSLPAPKNLVVSRVTEDSARLSWTAPDAAFDSFEIGYFEATPNGEAIVLTVPGSERSYDLTGLKPGTEYKVFIGGVKGGRWSKPLSAIFTT
In the case of B24, the RLU in assay [1] amounted to 5.57e+06 RLU. In assay [2], the Apical domain:HSA was 406.

B25: CD71-binding FN3 domain SEQ ID NO: 305 (designed binder)
chain: MSLPAPKNLVVSRVTEDSARLSWTAPDAAFDSFEIAYFEQTYTGEAIVLTVPGSERSYDLTGLKPGTEYWVQIGGVKGGNWSAPLSAIFTT
Turning to B25, the RLU in assay [1] turned out to be 5.69e+06 RLU. Besides, the Apical domain:HSA in assay [2] was 495.

B26: CD71-binding FN3 domain SEQ ID NO: 330 (designed binder)
chain: MSLPAPKNLVVSRVTEDSARLSWTAPDAAFDSFEIGYFENLYLGEAIVLTVPGSERSYDLTGLKPGTEYWVQIGGVKGGNWSAPLSAIVTT
Regarding B26, the RLU in assay [1] was found to be 4.31e+06 RLU. For the same molecule, the Apical domain:HSA in assay [2] was 92.

B27: CD71-binding FN3 domain SEQ ID NO: 323 (designed binder)
chain: MSLPAPKNLVVSRVTEDSARLSWTAPDAAFDSFEIGYFENLYLGEAIVLTVPGSERSYDLTGLKPGTEYWVQIGGVKGGNWSGPLSAIFTT
Consider B27, for which, in assay [1], the RLU worked out at 4.22e+06 RLU. For the same molecule, in assay [2], the Apical domain:HSA was determined as 95.

B28: CD71-binding FN3 domain SEQ ID NO: 322 (designed binder)
chain: MSLPAPKNLVVSRVTEDSARLSWTAPDAAFDSFEIGYFEITRYGEAIILFVPGSERSYDLTGLKPGTEYWVQIGGVKGGNWSAPLSAIFTT
On to B28, for which the RLU in assay [1] worked out at 4.99e+06 RLU. For the same molecule, the Apical domain:HSA in assay [2] was 252.

B29: CD71-binding FN3 domain SEQ ID NO: 309 (designed binder)
chain: MSLPAPENLVVSRVTEDSARLSWTAPDAAFDSFEIGYFENLYLGEAIVLTVPGSERSYDLTGLKPGTEYWVQIGGVKGGNWSAPLSAIFTT
In assay [1], B29 came in with an RLU of 5.62e+06 RLU. In assay [2], the Apical domain:HSA is 452.

B30: CD71-binding FN3 domain SEQ ID NO: 315 (designed binder)
chain: MSLPAPKNLVVSRVTEDSARLSWTAPDAAFDSFEIGYFENLYLGEAIVLTVPGSERSYDLTGLKPGTEYWVQIGGVKGGNWSAPLSAISTT
Turning to B30, the RLU in assay [1] was 4.4e+06 RLU. The Apical domain:HSA in assay [2] came out at 73.

B31: CD71-binding FN3 domain SEQ ID NO: 307 (designed binder)
chain: MSLPAPKNLVVSRVTEDSARLSWTAPDAAFNSFEIGYFENLYLGEAIVLTVPGSERSYDLTGLKPGTEYWVQIGGVKGGTFSAPLSAIFTT
The molecule B31 gave an RLU in assay [1] of 5.36e+06 RLU. Also, the Apical domain:HSA in assay [2] turned out to be 72.

B32: CD71-binding FN3 domain SEQ ID NO: 313 (designed binder)
chain: MSLPAPKNLVVSRVTEDSARLSWTAPDAAFDSFEIAYFENDWAGEAIVLTIPGSERSYDLTGLKPGTEYWVQIGGVKGGNWSAPLSAIFTT
For the molecule B32, the RLU in assay [1] was determined as 5.17e+06 RLU. Also, the Apical domain:HSA in assay [2] was determined as 835.

B33: CD71-binding FN3 domain SEQ ID NO: 325 (designed binder)
chain: MSLPAPKNLVVSRVTEDSARLSWTAPDAAFDSFEIGYFENLYLGEAIVLTVPGSERSYDLTGLKPGTEYWVQIGGVKGGNWSAPLSEIFTT
Consider B33, for which the RLU in assay [1] came out at 4.37e+06 RLU. Further, the Apical domain:HSA in assay [2] was determined as 205.
